Laboratory results: paper PMC4372080 (Nature, 2014)

Target: T1, TmrA-A591C (Thermus thermophilus, UniProt Q72J05 1-600, A591C)
T1 sequence (looked up): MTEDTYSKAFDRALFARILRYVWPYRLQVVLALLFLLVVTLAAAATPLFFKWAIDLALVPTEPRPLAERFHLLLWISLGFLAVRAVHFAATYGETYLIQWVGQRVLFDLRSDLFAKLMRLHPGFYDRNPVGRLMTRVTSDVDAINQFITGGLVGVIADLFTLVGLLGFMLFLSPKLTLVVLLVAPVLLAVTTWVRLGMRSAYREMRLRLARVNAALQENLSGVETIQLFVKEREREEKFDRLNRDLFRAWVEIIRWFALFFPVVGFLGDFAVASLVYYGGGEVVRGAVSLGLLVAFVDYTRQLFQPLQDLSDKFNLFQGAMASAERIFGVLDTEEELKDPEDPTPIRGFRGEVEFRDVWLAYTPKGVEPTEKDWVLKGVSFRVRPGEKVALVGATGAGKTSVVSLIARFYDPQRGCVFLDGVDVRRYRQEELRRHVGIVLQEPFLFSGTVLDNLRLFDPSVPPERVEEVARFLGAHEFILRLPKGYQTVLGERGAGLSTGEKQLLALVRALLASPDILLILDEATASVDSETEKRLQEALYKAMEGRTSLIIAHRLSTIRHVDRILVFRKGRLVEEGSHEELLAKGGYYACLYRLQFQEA
Assay: cross-linking

B1: TmrB-A567C (natural protein, Thermus thermophilus, UniProt Q72J04 1-578, looked up)
chain: MTGRSAAPLLRRLWPYVGRYRWRYLWAVLAGLVSIFFFVLTPYFLRLAVDAVQAGRGFGVYALAIVASAALSGLLSYAMRRLAVVASRQVEYDLRRDLLHHLLTLDRDFYHKHRVGDLMNRLNTDLSAVREMVGPGILMGSRLSFLVLLAFLSMYAVNARLAFYLTLILPGIFLAMRFLLRLIDRRYREAQEVFDRISTLAQEAFSGIRVVKGYALERRMVAWFQDLNRLYVEKSLALARVEGPLHALLGFLMGFAFLTVLWAGGAMVVRGELSVGELVQFNAYLAQLTWPILGLGWVMALYQRGLTSLRRLFELLDEKPAIRDEDPLPLALEDLSGEVRFEGVGLKRDGRWLLRGLTLTIPEGMTLGITGRTGSGKSLLAALVPRLLDPSEGRVYVGGHEARRIPLAVLRKAVGVAPQEPFLFSETILENIAFGLDEVDRERVEWAARLAGIHEEILAFPKGYETVLGERGITLSGGQRQRVALARALAKRPKILILDDALSAVDAETEARILQGLKTVLGKQTTLLISHRTAALRHADWIIVLDGGRIVEEGTHESLLQAGGLYCEMDRLQKEVEA
  binding result: binds
